What was measured:
[1] = system: PNA-Caspase 3 dual-labeled peptide chimera: PNA-Linker-Cys His His His His His His Asp Glu Val Asp Ala Lys-(C18-spacer)-Cy3
[2] = system: biotinylated Caspase 3 peptide substrate with end-labeled fluorescent dye Cy5

Row | Substance | percentage of the residual assay intensity ratio relative to the negative control (PNA-peptide chimera III) [%] | percentage of the residual assay intensity ratio relative to the negative control (PNA-peptide chimera II) [%] | percentage of the residual assay intensity ratio relative to the negative control (PNA-peptide chimera I) [%] | fluorescent Cy3/Cy5 signal ratio (Caspase 3 at 0 to 4 ng/µl) [1] | Cy5 signal intensity at 1000 ms integration of uncut substrate (Caspase 3 at 8 to 0 microgram/ml) [2]
1 | Caspase 8 | 59.89 | 69.41 | 73.77 |  | 
2 | Caspase 3 | 112.03 | 82.35 | 53.48 | the fluorescent Cy3/Cy5 signal ratio decreases from approximately 1 to 0.6 | The Cy5 signal intensity at 1000 ms integration increased from about 2600 to 5200 units for a decreasing Caspase 3 concentration ranging from 8 to 0 microgram/ml
3 | Caspase 6 | 79.08 | 41.18 | 91.80 |  | 
